The results in this text go back to PMC6201953.

Test [1] addresses HIV-1 HXB2 envelope glycoprotein (Env) (HIV-1 (isolate HXB2)) (UniProt P04578).
For test [2] the target is unchanged. This is another data set of the same source.
The target of test [3] is HIV-1 YU2 envelope glycoprotein (Env) (HIV-1 (isolate YU2)) (UniProt P35961).
Test [4] deals with HIV-1 HXB2 envelope glycoprotein (Env) (HIV-1 (isolate HXB2)) (UniProt P04578). This is another data set of the same source.
Test [5] has as its target HIV-1 ZM651 envelope glycoprotein (Env) (HIV-1 (isolate ZM651)).
Test [6] deals with HIV-1 BG505 envelope glycoprotein (Env) (HIV-1 (isolate BG505)) (UniProt Q2N0S6).
The target in test [7] is HIV-1 YU2 envelope glycoprotein (Env) (HIV-1 (isolate YU2)) (UniProt P35961). The source holds these as a separate data set.

Chain of UniProt P35961 (P35961 32-843): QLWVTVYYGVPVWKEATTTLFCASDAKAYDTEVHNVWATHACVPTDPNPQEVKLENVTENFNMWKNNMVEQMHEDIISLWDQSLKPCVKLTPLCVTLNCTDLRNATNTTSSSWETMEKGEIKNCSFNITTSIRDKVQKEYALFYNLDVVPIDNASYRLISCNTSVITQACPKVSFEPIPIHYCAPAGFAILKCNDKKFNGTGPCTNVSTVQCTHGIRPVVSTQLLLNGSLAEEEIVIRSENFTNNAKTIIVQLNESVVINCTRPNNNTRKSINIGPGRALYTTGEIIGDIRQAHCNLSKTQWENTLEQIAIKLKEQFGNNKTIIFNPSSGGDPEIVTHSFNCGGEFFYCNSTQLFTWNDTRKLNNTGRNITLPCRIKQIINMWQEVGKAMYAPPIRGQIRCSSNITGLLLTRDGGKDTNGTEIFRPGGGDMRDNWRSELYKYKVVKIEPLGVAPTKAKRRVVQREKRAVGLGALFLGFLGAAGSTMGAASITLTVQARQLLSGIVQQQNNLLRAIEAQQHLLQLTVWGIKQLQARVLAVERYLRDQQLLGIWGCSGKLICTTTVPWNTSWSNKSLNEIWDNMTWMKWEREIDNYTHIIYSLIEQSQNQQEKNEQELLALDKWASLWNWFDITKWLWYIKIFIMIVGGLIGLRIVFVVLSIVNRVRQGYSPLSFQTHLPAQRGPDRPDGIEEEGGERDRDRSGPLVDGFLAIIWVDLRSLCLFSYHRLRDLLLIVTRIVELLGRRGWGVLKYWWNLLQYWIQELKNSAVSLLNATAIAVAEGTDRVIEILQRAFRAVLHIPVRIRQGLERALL

Regarding VRC03 (antibody), the Env-mediated cell-cell fusion (SRFA), fusion level with 10 μg/mL antibody; the pair said to be blocked is CD4 (on HeLa.CD4-DSP2 cells) with gp120 in test [1] was 53 % of control.
As for eCD4-Ig^mim2 (Fc fusion), the Env-mediated cell-cell fusion (SRFA), CHO-DSP1 cells with HIV-1 HXB2 Env and HeLa.CD4-DSP2 cells, fusion level at 1 μg/mL (Fig 1D; concentration dependent over 10-1000 ng/mL, Fig 3A) (% of untreated control) in test [2] was 18. For the same substance, the Env-mediated cell-cell fusion (SRFA), fusion level at 260 nM (% of untreated control) in test [2] was 2. The Env-mediated cell-cell fusion (SRFA), CHO-DSP1 cells with HIV-1 YU2 Env and HeLa.CD4-DSP2 cells with CCR5, fusion level at 260 nM (% of untreated control) in test [3] came out at 30. Also, the IC50 of neutralisation of HIV-1 pseudovirus (TZM-bl assay) in test [4] was found to be 0.0008 µg/mL; in test [5], 0.468 µg/mL; in test [6], 0.258 µg/mL; in test [7], 0.003 µg/mL. Besides, the IC90 of neutralisation of HIV-1 pseudovirus (TZM-bl assay) in test [4] was 0.002 µg/mL; in test [5], 1.65 µg/mL; in test [6] it was 0.83 µg/mL; in test [7], 0.009 µg/mL.
